From PMC4864278

Legend:
[1] = target: TRIM32 extended RING domain (UniProt Q13049); experiment: SAXS; batch SAXS, Diamond Light Source beamline B21; at least three dilutions of each construct; concentrations as in Table 2
[2] = target: TRIM32 extended RING domain (UniProt Q13049); experiment: SEC-MALS; SEC-MALLS, Superdex 75 or Superdex 200 10/300 GL, 25°C, 20 mM HEPES pH 7.5, 100 mM NaCl (TRIM32) or 150 mM NaCl (TRIM25), 0.5 mM TCEP, 3 mM NaN3; samples run over a range of concentrations

TRIM32 extended RING domain (from UniProt Q13049 1-93) (domain or fragment), sequence (Q13049 1-93): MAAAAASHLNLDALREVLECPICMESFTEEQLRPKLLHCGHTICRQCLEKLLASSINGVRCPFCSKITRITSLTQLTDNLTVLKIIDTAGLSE

stoichiometry N [1]: 2
stoichiometry N [2]: 2
Substance: TRIM32 extended RING domain (from UniProt Q13049 1-93) (domain or fragment)
